In patent US10280205B2, “Method for treating cancer with an activated T lymphocyte that selectively recognizes a cancer cell consisting of specific peptide” (immatics biotechnologies GmbH, priority 2015, dated 2019):

These substances were tested against HLA-A*02:01 (Homo sapiens, UniProt P04439, D140Y/D185E/D98H/E176V/E277Q/G131W/G231S/I119V/I121R/I166T/I218V/L300P/L318F/N151K/N90K/P208A/P217A/Q86G/Q94H/R138H/R169H/T345S) (assay: MHC binding assay: UV-ligand exchange with beta2m ELISA (exchange yield)). Details: binding to HLA-A*02:01, β2m ELISA.
Description: Candidate peptides for T cell based therapies according to the present invention were further tested for their MHC binding capacity (affinity). The individual peptide-MHC complexes were produced by UV-ligand exchange, where a UV-sensitive peptide is cleaved upon UV-irradiation, and exchanged with the peptide of interest as analyzed. Only peptide candidates that can effectively bind and stabilize the peptide-receptive MHC molecules prevent dissociation of the MHC complexes. To determine the yield of the exchange reaction, an ELISA was performed based on the detection of the light chain (β2m) of stabilized MHC complexes. The assay was performed as generally described in Rodenko et al. (Rodenko et al., 2006).
96 well MAXISorp plates (NUNC) were coated over night with 2 ug/ml streptavidin in PBS at room temperature, washed 4× and blocked for 1 h at 37° C. in 2% BSA containing blocking buffer. […] Peptide-MHC monomers of the UV-exchange reaction were diluted 100 fold in blocking buffer. Samples were incubated for 1h at 37° C., washed four times, incubated with 2 ug/ml HRP conjugated anti-β2m for 1h at 37° C., washed again and detected with TMB solution that is stopped with […]. Absorption was measured at 450 nm. Candidate peptides that show a high exchange yield (preferably higher than 50%, most preferred higher than 75%) are generally preferred for a generation and production of antibodies or fragments thereof, and/or T cell receptors or fragments thereof, as they show sufficient avidity to the MHC molecules and prevent dissociation of the MHC complexes.

Row | Substance | Peptide exchange (MHC class I binding score, peptide exchange yield)
1 | 520 (LAVHPSGVAL; listed as Homo sapiens) [compound 520] | “+” (≥10% = +)
2 | 102 (YLFESEGLVL; listed as Homo sapiens) [compound 102] | “+++” (≥50 = +++)
3 | 236 (GLLEAKVSL; listed as Homo sapiens) [compound 236] | “+++” (≥50 = +++)
4 | 52 (FLLAHGLGFLL; listed as Homo sapiens) [compound 52] | “++++” (≥75% = ++++)
5 | 577 (VMFEDGVLMRL; listed as Homo sapiens) [compound 577] | “+++” (≥50 = +++)
6 | 505 (SLAPGDVVRQV; listed as Homo sapiens) [compound 505] | “++” (≥20% = ++)
7 | 214 (FLLDLDPLLL; listed as Homo sapiens) [compound 214] | “+++” (≥50 = +++)
8 | 574 (YLLQEPPRTV; listed as Homo sapiens) [compound 574] | “++” (≥20% = ++)
9 | 248 (FLFPNQYVDV; listed as Homo sapiens) [compound 248] | “+++” (≥50 = +++)
10 | 123 (NLWDLTDASVV; listed as Homo sapiens) [compound 123] | “+++” (≥50 = +++)
11 | 556 (FLTDLEDLTL; listed as Homo sapiens) [compound 556] | “+++” (≥50 = +++)
12 | 477 (ALLPASGQIAL; listed as Homo sapiens) [compound 477] | “+++” (≥50 = +++)
13 | 42 (VLLQKIVSA; listed as Homo sapiens) [compound 42] | “+++” (≥50 = +++)
14 | 98 (LIIDQADIYL; listed as Homo sapiens) [compound 98] | “+++” (≥50 = +++)
15 | 440 (ALADGVTMQV; listed as Homo sapiens) [compound 440] | “++” (≥20% = ++)
16 | 195 (GLFADLLPRL; listed as Homo sapiens) [compound 195] | “+++” (≥50 = +++)
17 | 605 (KLYEAVPQL; listed as Homo sapiens) [compound 605] | “+++” (≥50 = +++)
18 | 239 (AAFAGKLLSV; listed as Homo sapiens) [compound 239] | “+++” (≥50 = +++)
19 | 390 (ALFMKQIYL; listed as Homo sapiens) [compound 390] | “+++” (≥50 = +++)
20 | 381 (FIDEAYVEV; listed as Homo sapiens) [compound 381] | “++” (≥20% = ++)
21 | 598 (FLFPHSVLV; listed as Homo sapiens) [compound 598] | “+++” (≥50 = +++)
22 | 305 (SIANFSEFYV; listed as Homo sapiens) [compound 305] | “++++” (≥75% = ++++)
23 | 111 (YVWGFYPAEV; listed as Homo sapiens) [compound 111] | “+++” (≥50 = +++)
24 | 93 (LLQAIKLYL; listed as Homo sapiens) [compound 93] | “++” (≥20% = ++)
25 | 201 (RLVDYLEGI; listed as Homo sapiens) [compound 201] | “+++” (≥50 = +++)

Row | Substance | Peptide exchange (MHC class I binding score, peptide exchange yield)
26 | 456 (LLIGHLERV; listed as Homo sapiens) [compound 456] | “+++” (≥50 = +++)
27 | 193 (QLLDADGFLNV; listed as Homo sapiens) [compound 193] | “+++” (≥50 = +++)
28 | 329 (FLVTLNNVEV; listed as Homo sapiens) [compound 329] | “++++” (≥75% = ++++)
29 | 262 (LLWGDLIWL; listed as Homo sapiens) [compound 262] | “+++” (≥50 = +++)
30 | 398 (KLLEEDGTIITL; listed as Homo sapiens) [compound 398] | “++” (≥20% = ++)
31 | 286 (YLFPGIPEL; listed as Homo sapiens) [compound 286] | “+++” (≥50 = +++)
32 | 76 (ILIDSIYKV; listed as Homo sapiens) [compound 76] | “+++” (≥50 = +++)
33 | 593 (GLPRFGIEMV; listed as Homo sapiens) [compound 593] | “+++” (≥50 = +++)
34 | 117 (ILPDGEDFLAV; listed as Homo sapiens) [compound 117] | “+++” (≥50 = +++)
35 | 343 (SLLEVNEESTV; listed as Homo sapiens) [compound 343] | “+++” (≥50 = +++)
36 | 218 (SALEELVNV; listed as Homo sapiens) [compound 218] | “++” (≥20% = ++)
37 | 160 (FLFDEEIEQI; listed as Homo sapiens) [compound 160] | “+++” (≥50 = +++)
38 | 620 (KLLNKIYEA; listed as Homo sapiens) [compound 620] | “++++” (≥75% = ++++)
39 | 300 (ALLGQTFSL; listed as Homo sapiens) [compound 300] | “+++” (≥50 = +++)
40 | 357 (SMHDLVLQV; listed as Homo sapiens) [compound 357] | “+++” (≥50 = +++)
41 | 281 (ILRESTEEL; listed as Homo sapiens) [compound 281] | “+++” (≥50 = +++)
42 | 599 (YLLNDASLISV; listed as Homo sapiens) [compound 599] | “+++” (≥50 = +++)
43 | 4 (GIMEHITKI; listed as Homo sapiens) [compound 4] | “++++” (≥75% = ++++)
44 | 363 (KVLDVSDLESV; listed as Homo sapiens) [compound 363] | “++” (≥20% = ++)
45 | 397 (YLFGERLLEC; listed as Homo sapiens) [compound 397] | “+++” (≥50 = +++)
46 | 585 (ALWDLAADKQTL; listed as Homo sapiens) [compound 585] | “++++” (≥75% = ++++)
47 | 83 (ILAPTVMMI; listed as Homo sapiens) [compound 83] | “+++” (≥50 = +++)
48 | 448 (NLLETKLQL; listed as Homo sapiens) [compound 448] | “+++” (≥50 = +++)
49 | 513 (SLWPSPEQL; listed as Homo sapiens) [compound 513] | “++” (≥20% = ++)
50 | 88 (FLLVGDLMAV; listed as Homo sapiens) [compound 88] | “+++” (≥50 = +++)
